The sequences below were run on Escherichia coli TOP10 (assay: shrunken log2 fold change of peptide-encoding DNA abundance (4.5 h post-induction vs induction); higher = less antimicrobial activity (less host growth inhibition)). Details: time post-induction: 4.5 h; library: site-saturation at positions 5, 18, 19, 20.
In the case of RRIRWRPPRLPRPRPRPTMYPRP, the “shrunken log2 fold change” value is reported as 0.00431.
For RRIRQRPPRLPRPRPRPYFMPRP, the “shrunken log2 fold change” value was -0.89.
In the case of RRIRMRPPRLPRPRPRPDIVPRP, the “shrunken log2 fold change” value is reported as 0.0138.
In the case of RRIRLRPPRLPRPRPRPAIQPRP, the “shrunken log2 fold change” value is reported as 0.987.
In the case of RRIRFRPPRLPRPRPRPPQYPRP, the “shrunken log2 fold change” value is reported as 0.0298.
RRIRVRPPRLPRPRPRPGPYPRP was tested, and the “shrunken log2 fold change” value was -0.0621.
In the case of RRIRDRPPRLPRPRPRPNHGPRP, the “shrunken log2 fold change” value is reported as 1.15.
RRIRARPPRLPRPRPRPTGCPRP was tested, and the “shrunken log2 fold change” value was 0.458.
RRIRIRPPRLPRPRPRPDTLPRP was tested, and the “shrunken log2 fold change” value was -0.658.
With RRIRNRPPRLPRPRPRPCFMPRP the “shrunken log2 fold change” value was -0.742.
With RRIRGRPPRLPRPRPRPCAEPRP the “shrunken log2 fold change” value was 1.91.
RRIRERPPRLPRPRPRPPRLPRP was tested, and the “shrunken log2 fold change” value was 0.178.
With RRIRARPPRLPRPRPRPASLPRP the “shrunken log2 fold change” value was 0.196.
With RRIRWRPPRLPRPRPRPNCIPRP the “shrunken log2 fold change” value was -0.0807.
With RRIRNRPPRLPRPRPRPVPIPRP the “shrunken log2 fold change” value was -0.0984.
RRIRNRPPRLPRPRPRPYNMPRP was tested, and the “shrunken log2 fold change” value was -0.0281.
With RRIRARPPRLPRPRPRPWIQPRP the “shrunken log2 fold change” value was -0.103.
For RRIRERPPRLPRPRPRPSVDPRP, the “shrunken log2 fold change” value was -0.318.
With RRIRSRPPRLPRPRPRPWQFPRP the “shrunken log2 fold change” value was 0.0527.
RRIRLRPPRLPRPRPRPPQWPRP was tested, and the “shrunken log2 fold change” value was 0.322.
With RRIRIRPPRLPRPRPRPTAYPRP the “shrunken log2 fold change” value was -0.425.
RRIRGRPPRLPRPRPRPVMLPRP was tested, and the “shrunken log2 fold change” value was 0.317.
RRIRDRPPRLPRPRPRPDSHPRP was tested, and the “shrunken log2 fold change” value was 0.0162.
RRIRMRPPRLPRPRPRPEYMPRP was tested, and the “shrunken log2 fold change” value was -0.00213.
With RRIRFRPPRLPRPRPRPHWAPRP the “shrunken log2 fold change” value was -0.0371.
In the case of RRIRRRPPRLPRPRPRPKFEPRP, the “shrunken log2 fold change” value is reported as 0.0131.
In the case of RRIRWRPPRLPRPRPRPHQTPRP, the “shrunken log2 fold change” value is reported as 0.0649.
With RRIRDRPPRLPRPRPRPPSEPRP the “shrunken log2 fold change” value was 0.459.
In the case of RRIRFRPPRLPRPRPRPQDFPRP, the “shrunken log2 fold change” value is reported as -0.143.
In the case of RRIRHRPPRLPRPRPRPPRVPRP, the “shrunken log2 fold change” value is reported as 0.356.
With RRIRHRPPRLPRPRPRPENWPRP the “shrunken log2 fold change” value was 0.147.
RRIRNRPPRLPRPRPRPAHMPRP was tested, and the “shrunken log2 fold change” value was -0.167.
RRIRWRPPRLPRPRPRPYIDPRP was tested, and the “shrunken log2 fold change” value was -0.23.
For RRIRSRPPRLPRPRPRPCSIPRP, the “shrunken log2 fold change” value was -0.153.
For RRIRGRPPRLPRPRPRPMRQPRP, the “shrunken log2 fold change” value was 0.453.
RRIRERPPRLPRPRPRPQSLPRP was tested, and the “shrunken log2 fold change” value was -0.0684.
RRIRQRPPRLPRPRPRPGHMPRP was tested, and the “shrunken log2 fold change” value was 0.0335.
For RRIRTRPPRLPRPRPRPKNEPRP, the “shrunken log2 fold change” value was 0.715.
With RRIRGRPPRLPRPRPRPIIAPRP the “shrunken log2 fold change” value was 0.571.
For RRIRVRPPRLPRPRPRPNKFPRP, the “shrunken log2 fold change” value was -0.255.
In the case of RRIRDRPPRLPRPRPRPFVIPRP, the “shrunken log2 fold change” value is reported as 0.129.
For RRIRVRPPRLPRPRPRPMKYPRP, the “shrunken log2 fold change” value was -0.0836.
With RRIRPRPPRLPRPRPRPFEHPRP the “shrunken log2 fold change” value was 0.0626.
For RRIRKRPPRLPRPRPRPYPTPRP, the “shrunken log2 fold change” value was -0.0559.
RRIRMRPPRLPRPRPRPRRCPRP was tested, and the “shrunken log2 fold change” value was 1.08.
In the case of RRIRLRPPRLPRPRPRPNREPRP, the “shrunken log2 fold change” value is reported as -0.118.
With RRIRNRPPRLPRPRPRPVSDPRP the “shrunken log2 fold change” value was -0.192.
With RRIRFRPPRLPRPRPRPQIPPRP the “shrunken log2 fold change” value was -0.475.
In the case of RRIRYRPPRLPRPRPRPSPHPRP, the “shrunken log2 fold change” value is reported as -0.49.
With RRIRARPPRLPRPRPRPRKQPRP the “shrunken log2 fold change” value was 0.301.
With RRIRRRPPRLPRPRPRPLVKPRP the “shrunken log2 fold change” value was -0.179.
RRIRMRPPRLPRPRPRPTSEPRP was tested, and the “shrunken log2 fold change” value was 0.511.
With RRIRLRPPRLPRPRPRPNSGPRP the “shrunken log2 fold change” value was -0.095.
With RRIRRRPPRLPRPRPRPQHMPRP the “shrunken log2 fold change” value was -0.296.
RRIRARPPRLPRPRPRPLNFPRP was tested, and the “shrunken log2 fold change” value was -0.249.
For RRIRYRPPRLPRPRPRPLKEPRP, the “shrunken log2 fold change” value was 0.0179.
With RRIRGRPPRLPRPRPRPGFRPRP the “shrunken log2 fold change” value was 0.399.
For RRIRYRPPRLPRPRPRPHTMPRP, the “shrunken log2 fold change” value was -0.604.
For RRIRGRPPRLPRPRPRPITAPRP, the “shrunken log2 fold change” value was 0.236.
In the case of RRIRYRPPRLPRPRPRPIQTPRP, the “shrunken log2 fold change” value is reported as -0.499.
For RRIRKRPPRLPRPRPRPKWAPRP, the “shrunken log2 fold change” value was 0.0446.
RRIRMRPPRLPRPRPRPCLEPRP was tested, and the “shrunken log2 fold change” value was 0.126.
With RRIRDRPPRLPRPRPRPLIIPRP the “shrunken log2 fold change” value was -0.0486.
In the case of RRIRWRPPRLPRPRPRPQMQPRP, the “shrunken log2 fold change” value is reported as 0.0894.
With RRIRHRPPRLPRPRPRPRFNPRP the “shrunken log2 fold change” value was -0.316.
For RRIRGRPPRLPRPRPRPMTIPRP, the “shrunken log2 fold change” value was 0.0989.
In the case of RRIRMRPPRLPRPRPRPSLRPRP, the “shrunken log2 fold change” value is reported as 0.626.
In the case of RRIRSRPPRLPRPRPRPTKCPRP, the “shrunken log2 fold change” value is reported as -0.258.
With RRIRCRPPRLPRPRPRPGSWPRP the “shrunken log2 fold change” value was 0.439.
With RRIRFRPPRLPRPRPRPCSCPRP the “shrunken log2 fold change” value was -0.879.
RRIRWRPPRLPRPRPRPCFFPRP was tested, and the “shrunken log2 fold change” value was 0.0878.
With RRIRARPPRLPRPRPRPCYTPRP the “shrunken log2 fold change” value was -0.486.
In the case of RRIRTRPPRLPRPRPRPKNRPRP, the “shrunken log2 fold change” value is reported as -0.0821.
For RRIRLRPPRLPRPRPRPWDCPRP, the “shrunken log2 fold change” value was -0.0998.
With RRIRHRPPRLPRPRPRPFVCPRP the “shrunken log2 fold change” value was -0.453.
RRIRSRPPRLPRPRPRPWWLPRP was tested, and the “shrunken log2 fold change” value was 0.0261.
With RRIRMRPPRLPRPRPRPCKEPRP the “shrunken log2 fold change” value was -0.00822.
In the case of RRIRRRPPRLPRPRPRPRKRPRP, the “shrunken log2 fold change” value is reported as 0.859.
In the case of RRIRQRPPRLPRPRPRPVYKPRP, the “shrunken log2 fold change” value is reported as -0.612.
RRIRVRPPRLPRPRPRPPPQPRP was tested, and the “shrunken log2 fold change” value was 0.856.
For RRIRHRPPRLPRPRPRPMSAPRP, the “shrunken log2 fold change” value was -0.549.
With RRIRERPPRLPRPRPRPAHPPRP the “shrunken log2 fold change” value was -0.0581.
RRIRRRPPRLPRPRPRPETPPRP was tested, and the “shrunken log2 fold change” value was 1.12.
For RRIRERPPRLPRPRPRPWSNPRP, the “shrunken log2 fold change” value was -0.0583.
With RRIRSRPPRLPRPRPRPKDFPRP the “shrunken log2 fold change” value was 0.0212.
In the case of RRIRRRPPRLPRPRPRPFCAPRP, the “shrunken log2 fold change” value is reported as 0.488.
In the case of RRIRWRPPRLPRPRPRPDAVPRP, the “shrunken log2 fold change” value is reported as 0.4.
With RRIRCRPPRLPRPRPRPCLMPRP the “shrunken log2 fold change” value was -0.421.
For RRIRHRPPRLPRPRPRPTNWPRP, the “shrunken log2 fold change” value was 0.0467.
RRIRPRPPRLPRPRPRPREQPRP was tested, and the “shrunken log2 fold change” value was 0.00917.
For RRIRNRPPRLPRPRPRPLGMPRP, the “shrunken log2 fold change” value was -0.109.
RRIRYRPPRLPRPRPRPGDIPRP was tested, and the “shrunken log2 fold change” value was -0.0107.
RRIRFRPPRLPRPRPRPIEHPRP was tested, and the “shrunken log2 fold change” value was -0.215.
RRIRERPPRLPRPRPRPVTWPRP was tested, and the “shrunken log2 fold change” value was -0.165.
RRIRIRPPRLPRPRPRPRIRPRP was tested, and the “shrunken log2 fold change” value was -0.204.
RRIRGRPPRLPRPRPRPSMHPRP was tested, and the “shrunken log2 fold change” value was 0.421.
For RRIRYRPPRLPRPRPRPDEKPRP, the “shrunken log2 fold change” value was -0.102.
For RRIRTRPPRLPRPRPRPHKAPRP, the “shrunken log2 fold change” value was -0.0306.
For RRIRSRPPRLPRPRPRPVCVPRP, the “shrunken log2 fold change” value was 0.0943.
With RRIRLRPPRLPRPRPRPNHIPRP the “shrunken log2 fold change” value was -0.671.
With RRIRARPPRLPRPRPRPGVHPRP the “shrunken log2 fold change” value was 0.243.
RRIRKRPPRLPRPRPRPMWFPRP was tested, and the “shrunken log2 fold change” value was 0.0615.
With RRIRFRPPRLPRPRPRPNMVPRP the “shrunken log2 fold change” value was -0.124.
For RRIRNRPPRLPRPRPRPHCSPRP, the “shrunken log2 fold change” value was -0.095.
RRIRQRPPRLPRPRPRPHGFPRP was tested, and the “shrunken log2 fold change” value was -0.0134.
With RRIRVRPPRLPRPRPRPMDKPRP the “shrunken log2 fold change” value was -0.278.
RRIRARPPRLPRPRPRPTLIPRP was tested, and the “shrunken log2 fold change” value was 0.573.
With RRIRKRPPRLPRPRPRPWQHPRP the “shrunken log2 fold change” value was -0.0281.
With RRIRLRPPRLPRPRPRPCQQPRP the “shrunken log2 fold change” value was -0.047.
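Note: peptides expressed intracellularly from a pBAD plasmid library in pooled LB shake-flask culture, induced with 0.3% L-arabinose, DNA abundance read by NGS, three biological replicates, DESeq2 with apeglm shrinkage.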
